Reference: paper PMC3463765
Several values for one entry are separate records, joined by “and”; a condition that tells them apart may be missing. Identical values can stand only once.

How the values were obtained:
[1] = target: horse serum butyrylcholinesterase (horse); test: native gel or EMSA
[2] = target: horse serum butyrylcholinesterase (horse); test: SDS-PAGE without reducing agent
[3] = target: horse serum butyrylcholinesterase (horse); test: native gel or EMSA; remark: listed apart in the source

horse serum butyrylcholinesterase (enzyme)
stoichiometry N [1]: 4 | stoichiometry N [2]: 2 | stoichiometry N [3]: 2 and 4
